# Source: US20260265383A1 (FUSION ANTIBODIES, published 2026)
# T1: RAMP2 IMM ECD V1
# T1 construct: The entry includes a signal peptide whose residues cannot be read (drawing); The text says 'RAMP2 ECD'; also called RAMP2 ECD
# T1 chain: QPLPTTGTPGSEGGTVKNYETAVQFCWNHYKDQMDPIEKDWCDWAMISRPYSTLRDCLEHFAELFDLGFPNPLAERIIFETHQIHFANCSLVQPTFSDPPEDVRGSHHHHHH
# T2: RAMP2 Scr V1
# T2 construct: it is not part of the secreted protein; Expressed in HEK cells
# T2 chain: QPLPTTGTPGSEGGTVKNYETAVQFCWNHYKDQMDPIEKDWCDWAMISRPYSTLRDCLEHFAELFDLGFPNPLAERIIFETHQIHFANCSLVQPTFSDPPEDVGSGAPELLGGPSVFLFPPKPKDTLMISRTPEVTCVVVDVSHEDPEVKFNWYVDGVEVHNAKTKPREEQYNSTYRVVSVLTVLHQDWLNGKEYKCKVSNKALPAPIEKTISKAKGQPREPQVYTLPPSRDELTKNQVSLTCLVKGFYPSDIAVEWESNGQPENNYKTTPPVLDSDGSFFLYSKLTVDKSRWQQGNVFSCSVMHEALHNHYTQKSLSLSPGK
# T3: RAMP3_Scr_V1
# T3 construct: Expressed in HEK cells
# T3 chain: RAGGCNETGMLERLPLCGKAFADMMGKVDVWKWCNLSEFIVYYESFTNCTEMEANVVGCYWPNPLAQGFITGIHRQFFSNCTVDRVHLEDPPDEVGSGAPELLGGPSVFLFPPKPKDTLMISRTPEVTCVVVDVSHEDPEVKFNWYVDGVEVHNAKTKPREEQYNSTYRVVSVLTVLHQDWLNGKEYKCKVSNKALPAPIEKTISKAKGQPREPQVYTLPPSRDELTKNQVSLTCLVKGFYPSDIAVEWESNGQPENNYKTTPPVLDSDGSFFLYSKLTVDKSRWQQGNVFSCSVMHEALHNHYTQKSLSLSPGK
# B1: RAMP2-rIgG-k1-1A7#1 (antibody, V domains shown)
# VH: QSVEESGGDLVKPEGSLTLTCTASGFSFSISYWICWVRQTPGKGLEWIGCIYGGSSGRPYYASWAKGRFTISKTSSTTVTLQMTSLTAADTAAYFCATTAYGGYGYGTWGPGTLVTVSS
# VL: DGVMTQTPSSVSAAVGSTVTISCQASQSVFSNNYLSWYQQKPGQPPKLLIYTASSLASGVPSRFKGSGSGTQFTLTISDLECADAATYYCQCTYGKSGTDTYLNAFGGGTEVVVK
# notes: tested as recombinant rabbit IgG-kappa1 made in CHOEBNALT85-1E9 cells (supernatant); also called rlgG-k1-1A7
# B2: RAMP2-rIgG-k1-1H7 (antibody, V domains shown)
# VH: QSLEESGGDLVKPEGSLTLTCTASGFSFSISYWICWVRQTPGKGLEWIGCIYGGSSGRPYYASWAKGRFTISKTSSTTVTLQMTSLTAADTAAYFCATTAYGGYGYGTWGPGTLVTVSS
# VL: AAVLTQTPSSTSGPVGGTVTIKCQASQNIGSFLSWYQQKPGQPPKLLIYSASSLATGVPSRFSGSGSGTQFTLTISGVQCDDAATYYCLGFYAYRSDDGTAFGGGTEVVVK
# notes: tested as recombinant rabbit IgG-kappa1; also called rlgG-k1-1H7; 1H7_#5
# B3: RAMP3-rIgG-k1-6C2 (antibody, V domains shown)
# VH: QEQLEESEGGLFKPTDTLTLTCTVSGFSLSVYALTWVRQAPGNGLEWIGAIGNSGNTYYASWAKSRSTITRNTNENTVTLKMTSLTAADTATYFCARGYVRINVWGPGTLVTVSS
# VL: DGVMTQTPSSVSAAVGGTVTISCQSSQSVYKNNYLSWFQQKPGQPPKLLIYEISKLESGVPDRFSGSGSGTQFTLTISGVQCDDAATYYCLGGYDDDSDTSFGGGTEVVVK
# notes: tested as recombinant rabbit IgG-kappa1; also called rlgG-k1-6C2; 6C2_#25
# B4: RAMP2-rIgG-k1-1H6#4 (antibody, V domains shown)
# VH: QEHLVESEGGLFKPTDTLTLTCTVSGFSLSSYGVSWVRQAPGKGLEWIGVIGATGSAYYANWAKSRSTITRNTNLNTVTLKVTSLTAADTATYFCARDDVLTGMDLWGPGTLVTVSS
# VL: APVLTQTPASVEAAVGGTVTIKCQASQSINSWLSWYQQKPGQPPKLLIYQASKLASGVPSRFKGSGSGTEYTLTISDLKCADAATYYCQSYDYASNSGYVSNPFGGGTEVVVK
# notes: tested as recombinant rabbit IgG-kappa1; also called rlgG-k1-1H6
# B5: RAMP3-rIgG-k1-3A5 (antibody, V domains shown)
# VH: QSLEESGGGLVQPEGTLTLTCTVSGFSFSSNYWICWVRQAPGKGLEWIACIVTNSGTTYYTSWAKGRLTLSKTSSTTVTLQMTSLTAADTATYFCARDNNSVTGVEFNLWGPGTLVTVSS
# VL: DVVMTQTPASVSAAVGATVTIKCQASETIGNNLAWYQQKPGQPPKVLMFLASTLASGVPSRFKGSRSGTEYTLTISGVQCDDAATYYCQSYLGTSYAFGGGTEVVVK
# notes: tested as recombinant rabbit IgG-kappa1; also called rlgG-k1-3A5; 3A5_#15
# B6: RAMP2-rIgG-k1-2A8 (antibody, V domains shown)
# VH: QSLEESGGGLVQPEGSLTLTCTASGFDLSRYYYIFWVRQAPGKGLEWIGCIYIGGNIITYYASWAKGRFTISKTSSPAVTLQMTSLTVADTATYFCARGTGYGGYGDVSLWGPGTLVTVSS
# VL: APVLTHTAASVSEPVGGIVTINCQASQSIGSNLAWYQQKSGQPPKLLIYDASNLVSGVPSRFKGSRSGTEYTLTISDLECADAGTYYCQGYYYGSSTSYNLVSFGGGTEVVVK
# notes: tested as recombinant rabbit IgG-kappa1; also called rlgG-k1-2A8; 2A8_#12
# B7: RAMP3-rIgG-k1-4C10 (antibody, V domains shown)
# VH: QEQLEESGGGLVKPTDTLTLTCTVSGFSLSTNSIFWVRQAPGNGLEWIGAISYAGGTAYASWAKSRSTITRNTNLNTVTLKMTSLTAADTATYFCGRGYVGYSRSKGDIWGPGTLVTVSS
# VL: DGVMTQTPSSTSAAVGSTVTISCQSTQSIINNNWLAWYQQKPGHSPKLLIYDASTLASGVPSRFSGSGSGTQFTLTISDLECDDAATYYCAARYSGDIYTFGGGTEVVVR
# notes: tested as recombinant rabbit IgG-kappa1; also called rlgG-k1-4C10; 4C10_#19
# B8: RAMP2-rIgG-k1-1A10 (antibody, V domains shown)
# VH: QSLEESGGGLVQPEGSLTLTCTASGFSFSSSYYMCWVRQAPGKGLEWIGSIYTLSGSTAYASWAKGRFTISKTSSTTVTLQMTSLTAADTAMYFCARDSDGWGVSFNLWGPGTLVTVSS
# VL: AAVMTQTPSSLSAAVGGTVTIKCQASQSIRNQVSWYQQKPGQRPKLLIYRASTLESGVPSRFKGSGSGTDFTLTISDLECADAATYYCQCTYGSSSSNRYGNTFGGGTEVAVK
# notes: tested as recombinant rabbit IgG-kappa1; also called rlgG-k1-1A10; 1A10_#7
# B9: RAMP2-rIgG-k1-2A6 (antibody, V domains shown)
# VH: QSVEESGGDLVKPGASLTLTCTASGFSFSSRYYMCWVRQAPGKGLEWIGCIFGGSSGNTHYASWAKGRFTIAKTSSTTVTLRMTSLTAADTATYSCVRSDAWGVNLWGPGTLVTVSS
# VL: DVVMTQTPASVEAAVGGTVTIKCQASQSISNLLAWYQQKPGQPPKRLIYGASNLESGVPSRFKGSGSGTQFTLTISDLECADAATYYCQCSYDGSSPNAFGGGTEVVVE
# notes: tested as recombinant rabbit IgG-kappa1; also called rlgG-k1-2A6; 2A6_#9
# B10: RAMP2-rIgG-k1-2H3 (antibody, V domains shown)
# VH: QSVEESGGDLVKPGASLTLTCTASGFSFSSRYYMCWVRQAPGKGLEWIACIFGGSSDNSYYARWAKGRFTISKTSSTTVTLRMTSLTAADTATYFCVRSDAWGVNLWGPGTLVTVSS
# VL: AAVMTQTPSPVSGVVGGTVTIKCQASQSIYGYFSWYQQKPGQPPKLLIYSASDLASGVPSRFKGSGSGTQFTLTISDLECADAATYYCQCSYDGSSPNAFGGGTEVVVK
# notes: tested as recombinant rabbit IgG-kappa1; also called rlgG-k1-2H3; 2H3_#13
# B11: RAMP3-rIgG-k1-6B8 (antibody, V domains shown)
# VH: QSLEESGGGLVKPEGSLTLTCTASGFFFDRSYWICWVRQTPAKGLEWIACIVVSSGATYYASWAKGRLTLSKTSSTTVTLQMTSLTAADTAIYFCARDSSSTSGVEFNLWGPGTLVTVSS
# VL: DVMMTQTPASVSEPVGGTVTIKCQASQNIGNNLAWYQQKPGQPPKLLIYLTSTLASGVPSRFKGSRSGTEFTLTISDLECADAATYFCQSYLYTTYAFGGGTEVVVK
# notes: tested as recombinant rabbit IgG-kappa1; also called rlgG-k1-6B8; 6B8_#24
# B12: RAMP3-rIgG-k1-6D8 (antibody, V domains shown)
# VH: QSVEESGGDLVRPEGSLTLTCTASGFSLSSSYWICWVRQAPGKGLEWIACIVSNTGTTYYASWAKGRLTLSKTSSTTVTLQMTSLTAADTATYFCARDNNSKSGVEFNLWGPGTLVTVSS
# VL: DVVMTQTPASVSEPVGGTVTIKCQASQNIGNNLAWYQQKPGHPPKLLIYLASTLASGVPSRFKGSRSGTEFTLTISDLECADAATYYCQSYLYTTYAFGGGTEVVVK
# notes: tested as recombinant rabbit IgG-kappa1; also called rlgG-k1-6D8; 6D8_#28
# B13: RAMP3-rIgG-k1-5H9 (antibody, V domains shown)
# VH: QSLEESEGGLFKPTDTLTVTCIVSGLSLSRNAMSWVRQAPGSGLEWIGVIVTYGDTYYASWAKSRSTITRNTNENTVTLKMTSLTAADTATYFCIGGLDIWGPGTLVTVSS
# VL: DVVMTQTPASVEAAVGGTVTIKCQATESIASWLAWYQQKAGQPPKLLIYEASKLESGVPSRFKGSGSGTEFTLTISDLECADAATYYCQSYLYSSSNTYGNSFGGGTEVVVK
# notes: tested as recombinant rabbit IgG-kappa1; also called rlgG-k1-5H9; H9_#22
# B14: RAMP3-rIgG-k1-3A12 (antibody, V domains shown)
# VH: QEQLEESEGGLFKPTDTLTLTCTVSGFSLSSYGVSWVRQAPGNGLEYIGFIGKTGSAYYASWAKSRSTITRNTTLNTVTLKMTSLTVADTATYFCARLGPGSIYYFDIWGPGTLVTVSS
# VL: DPMLTQTPSSKSVPVGGTVTINCQSSESVYDNNWLAWFQQKPGQPPKRLIYSASTLASGVSSRFKGSGSGTQFTLTISDVQCDDAATYYCTGYKSRTTDEIAFGGGTEVVVK
# notes: tested as recombinant rabbit IgG-kappa1; also called rlgG-k1-3A12; 3A12_#17
# Columns and labels:
# RAMP2 IMM ECD V1 = molecular target: T1, RAMP2 IMM ECD V1; experiment: direct ELISA, 6-well supernatants at 8-500 ng/ml on RAMP2 ECD coated at 1.0 µg/ml
# Method: Immuno modules (Thermo Scientific™) were coated with RAMP2 ECD or RAMP3 Scr, 1.0 μg/ml in PBS, 100 μl/well, 20 h at 4° C. Supernatants of anti-RAMP2 and anti-RAMP3 rabbit IgG-κ1 antibody clones were transfered into wells at different concentrations (8-500 ng/ml; 100 μL/well, in PBS-0.05% Tween 20-1% BSA) and the plates were incubated for 60 min. on a shaker at room temperature (RT). Goat anti-rabbit-IgG HRP conjugate (Invitrogen; 1:20 000 in 1% BSA-PBS-0.05% Tween 20; 100 μL/well) was used as secondary reagent in direct ELISA (incubation time 60 min. at RT). To visualize, TMB substrate was added for 10 min. and stopped with 0.5 M H₂SO₄. Between every incubation step the wells were washed 4 times with PBS-Tween 20.
# RAMP2 Scr V1 [1] = molecular target: T2, RAMP2 Scr V1; experiment: ELISA, single-clone supernatants on RAMP2 Scr
# Method: (§1) 8 specific ELISA positive pools against both targets were selected for single clone isolation. Single clones were selected in LB-Amp solid medium, colonies were grown in liquid medium o/n on shaker at 37° C. in 96-well microtiter plates (2-4 96-well plates per target), plasmid DNA was isolated and transfected into CHOEBNALT85-1E9 cells for antibody transient production. 48-72 hours after transfection supernatants were analyzed by ELISA on RAMP2 Scr or RAMP3 Scr respectively.
# RAMP2 Scr V1 [2] = molecular target: T2, RAMP2 Scr V1; experiment: ELISA, 24-well supernatants on coated antigen
# Method: (§2) Amplified VH and VL were purified and altogether 20 cloning reactions per target were performed for cloning into rabbit IgG-κ1 encoding two-cassette expression plasmid by using Ligase Independent Cloning (LIC) method. Resulting antibody library pools were grown in E. coli strain DH5a. Plasmid DNA was purified and transfected into CHOEBNALT85-1E9 cells for transient production of antibodies in serum-free media for 48 hours in 24-well format. Cell culture supernatants were tested for RAMP2 Scr and RAMP2 ECD or RAMP3 Scr binding in ELISA (wells coated at 1 μg/ml in PBS).
# RAMP3_Scr_V1 [3] = molecular target: T3, RAMP3_Scr_V1; experiment: ELISA, single-clone supernatants on RAMP3 Scr
# Method: as §1
# RAMP3_Scr_V1 [4] = molecular target: T3, RAMP3_Scr_V1; experiment: ELISA, 24-well supernatants on coated RAMP3 Scr
# Method: as §2
Binder,titer (RAMP2 IMM ECD V1) [ng/mL],binding result (RAMP2 Scr V1 [2]),binding result (RAMP3_Scr_V1 [3]),further results
B1,< 8,,,binding result (RAMP2 Scr V1 [1]): binds
B2,< 8,binds,,
B3,,,binds,
B4,< 8,binds,,
B5,,,,binding result (RAMP3_Scr_V1 [4]): binds
B6,< 8,binds,,
B7,,,binds,
B8,< 8,binds,,
B9,< 8,binds,,
B10,< 8,binds,,
B11,,,binds,
B12,,,binds,
B13,,,binds,
B14,,,,binding result (RAMP3_Scr_V1 [4]): binds
